Data reported in paper doi:10.1101/2021.08.17.456705 (bioRxiv, 2021).

B1: Cu, Zn superoxide dismutase 1 (SOD1) H46Q-G108H, de-metallated (enzyme)
chain: not shown
B2: Cu, Zn superoxide dismutase 1 (SOD1) F20L-H46Q, de-metallated (enzyme)
chain: not shown

Target: the molecule itself
Test: SEC + native gel or EMSA

Protein	stoichiometry N
B1	3
B2	3
